The chains are these.
B1: N^ε1-[(4S)-4-carboxy-4-(19-carboxynonadecanoylamino)butanoyl]-[Arg17,Pro21,Pro27,Lys35]-h-amylin (peptide)
peptide: K([γGlu-C20 diacid])CNTATCATQRLANFLRHSSPNFGAIPSSTNVGSKTY-NH2
modifications: disulfide 2-7; N-terminus assumed
SMILES: CC[C@H](C)[C@H](NC(=O)[C@H](C)NC(=O)CNC(=O)[C@H](Cc1ccccc1)NC(=O)[C@H](CC(N)=O)NC(=O)[C@@H]1CCCN1C(=O)[C@H](CO)NC(=O)[C@H](CO)NC(=O)[C@H](Cc1c[nH]cn1)NC(=O)[C@H](CCCNC(=N)N)NC(=O)[C@H](CC(C)C)NC(=O)[C@H](Cc1ccccc1)NC(=O)[C@H](CC(N)=O)NC(=O)[C@H](C)NC(=O)[C@H](CC(C)C)NC(=O)[C@H](CCCNC(=N)N)NC(=O)[C@H](CCC(N)=O)NC(=O)[C@@H](NC(=O)[C@H](C)NC(=O)[C@@H]1CSSC[C@H](NC(=O)[C@@H](N)CCCCNC(=O)CC[C@H](NC(=O)CCCCCCCCCCCCCCCCCCC(=O)O)C(=O)O)C(=O)N[C@@H](CC(N)=O)C(=O)N[C@@H]([C@@H](C)O)C(=O)N[C@@H](C)C(=O)N[C@@H]([C@@H](C)O)C(=O)N1)[C@@H](C)O)C(=O)N1CCC[C@H]1C(=O)N[C@@H](CO)C(=O)N[C@@H](CO)C(=O)N[C@H](C(=O)N[C@@H](CC(N)=O)C(=O)N[C@H](C(=O)NCC(=O)N[C@@H](CO)C(=O)N[C@@H](CCCCN)C(=O)N[C@H](C(=O)N[C@@H](Cc1ccc(O)cc1)C(N)=O)[C@@H](C)O)C(C)C)[C@@H](C)O
notes: Acylated analogue of human amylin; also called compound 35
B2: N{Alpha-1}-[(4S)-4-carboxy-4-(19-carboxynonadecanoylamino)butanoyl]-[Glu14,Arg17,Pro21,Pro27,Lys34]-h-amylin (peptide)
peptide: {C20 diacid-γGlu}-KCNTATCATQRLAEFLRHSSPNFGAIPSSTNVGKNTY-NH2
modifications: disulfide 2-7
SMILES: CC[C@H](C)[C@H](NC(=O)[C@H](C)NC(=O)CNC(=O)[C@H](Cc1ccccc1)NC(=O)[C@H](CC(N)=O)NC(=O)[C@@H]1CCCN1C(=O)[C@H](CO)NC(=O)[C@H](CO)NC(=O)[C@H](Cc1c[nH]cn1)NC(=O)[C@H](CCCNC(=N)N)NC(=O)[C@H](CC(C)C)NC(=O)[C@H](Cc1ccccc1)NC(=O)[C@H](CCC(=O)O)NC(=O)[C@H](C)NC(=O)[C@H](CC(C)C)NC(=O)[C@H](CCCNC(=N)N)NC(=O)[C@H](CCC(N)=O)NC(=O)[C@@H](NC(=O)[C@H](C)NC(=O)[C@@H]1CSSC[C@H](NC(=O)[C@H](CCCCN)NC(=O)CC[C@H](NC(=O)CCCCCCCCCCCCCCCCCCC(=O)O)C(=O)O)C(=O)N[C@@H](CC(N)=O)C(=O)N[C@@H]([C@@H](C)O)C(=O)N[C@@H](C)C(=O)N[C@@H]([C@@H](C)O)C(=O)N1)[C@@H](C)O)C(=O)N1CCC[C@H]1C(=O)N[C@@H](CO)C(=O)N[C@@H](CO)C(=O)N[C@H](C(=O)N[C@@H](CC(N)=O)C(=O)N[C@H](C(=O)NCC(=O)N[C@@H](CCCCN)C(=O)N[C@@H](CC(N)=O)C(=O)N[C@H](C(=O)N[C@@H](Cc1ccc(O)cc1)C(N)=O)[C@@H](C)O)C(C)C)[C@@H](C)O
notes: Acylated analogue of human amylin; also called compound 36
B3: N^ε1-[(4S)-4-carboxy-4-[[(4S)-4-carboxy-4-(19-carboxynonadecanoylamino)butanoyl]amino]butanoyl]-[Asp14,Arg17,Pro21,Pro26,Asp35]-h-amylin (peptide)
peptide: K([γGlu-γGlu-C20 diacid])CNTATCATQRLADFLRHSSPNFGAPLSSTNVGSDTY-NH2
modifications: disulfide 2-7; N-terminus assumed
SMILES: CC(C)C[C@H](NC(=O)[C@H](CCCNC(=N)N)NC(=O)[C@H](CCC(N)=O)NC(=O)[C@@H](NC(=O)[C@H](C)NC(=O)[C@@H]1CSSC[C@H](NC(=O)[C@@H](N)CCCCNC(=O)CC[C@H](NC(=O)CC[C@H](NC(=O)CCCCCCCCCCCCCCCCCCC(=O)O)C(=O)O)C(=O)O)C(=O)N[C@@H](CC(N)=O)C(=O)N[C@@H]([C@@H](C)O)C(=O)N[C@@H](C)C(=O)N[C@@H]([C@@H](C)O)C(=O)N1)[C@@H](C)O)C(=O)N[C@@H](C)C(=O)N[C@@H](CC(=O)O)C(=O)N[C@@H](Cc1ccccc1)C(=O)N[C@@H](CC(C)C)C(=O)N[C@@H](CCCNC(=N)N)C(=O)N[C@@H](Cc1c[nH]cn1)C(=O)N[C@@H](CO)C(=O)N[C@@H](CO)C(=O)N1CCC[C@H]1C(=O)N[C@@H](CC(N)=O)C(=O)N[C@@H](Cc1ccccc1)C(=O)NCC(=O)N[C@@H](C)C(=O)N1CCC[C@H]1C(=O)N[C@@H](CC(C)C)C(=O)N[C@@H](CO)C(=O)N[C@@H](CO)C(=O)N[C@H](C(=O)N[C@@H](CC(N)=O)C(=O)N[C@H](C(=O)NCC(=O)N[C@@H](CO)C(=O)N[C@@H](CC(=O)O)C(=O)N[C@H](C(=O)N[C@@H](Cc1ccc(O)cc1)C(N)=O)[C@@H](C)O)C(C)C)[C@@H](C)O
notes: Acylated analogue of human amylin; also called compound 1
B4: N^ε1-[(4S)-4-carboxy-4-[[(4S)-4-carboxy-4-(19-carboxynonadecanoylamino)butanoyl]amino]butanoyl]-[Asp14,Arg17,Pro21,Pro27,Asp35]-h-amylin (peptide)
peptide: K([γGlu-γGlu-C20 diacid])CNTATCATQRLADFLRHSSPNFGAIPSSTNVGSDTY-NH2
modifications: disulfide 2-7; N-terminus assumed
SMILES: CC[C@H](C)[C@H](NC(=O)[C@H](C)NC(=O)CNC(=O)[C@H](Cc1ccccc1)NC(=O)[C@H](CC(N)=O)NC(=O)[C@@H]1CCCN1C(=O)[C@H](CO)NC(=O)[C@H](CO)NC(=O)[C@H](Cc1c[nH]cn1)NC(=O)[C@H](CCCNC(=N)N)NC(=O)[C@H](CC(C)C)NC(=O)[C@H](Cc1ccccc1)NC(=O)[C@H](CC(=O)O)NC(=O)[C@H](C)NC(=O)[C@H](CC(C)C)NC(=O)[C@H](CCCNC(=N)N)NC(=O)[C@H](CCC(N)=O)NC(=O)[C@@H](NC(=O)[C@H](C)NC(=O)[C@@H]1CSSC[C@H](NC(=O)[C@@H](N)CCCCNC(=O)CC[C@H](NC(=O)CC[C@H](NC(=O)CCCCCCCCCCCCCCCCCCC(=O)O)C(=O)O)C(=O)O)C(=O)N[C@@H](CC(N)=O)C(=O)N[C@@H]([C@@H](C)O)C(=O)N[C@@H](C)C(=O)N[C@@H]([C@@H](C)O)C(=O)N1)[C@@H](C)O)C(=O)N1CCC[C@H]1C(=O)N[C@@H](CO)C(=O)N[C@@H](CO)C(=O)N[C@H](C(=O)N[C@@H](CC(N)=O)C(=O)N[C@H](C(=O)NCC(=O)N[C@@H](CO)C(=O)N[C@@H](CC(=O)O)C(=O)N[C@H](C(=O)N[C@@H](Cc1ccc(O)cc1)C(N)=O)[C@@H](C)O)C(C)C)[C@@H](C)O
notes: Acylated analogue of human amylin; also called compound 2

Numbered stars: 1 amine (or outer) side, 2 acyl side, 3 side chain; on linkers, the order of the positions; unused ones are H or OH. Bridge positions count the residues as written; N and C are the ends. Side chains are listed from the residue outwards. Ends that are not written are not given here. * marks the point of attachment. C20 diacid = O=C(O)CCCCCCCCCCCCCCCCCCC(=O)*; γGlu = O=C(O)[C@H](CCC(=O)[*:2])N[*:1]

The values that follow come from patent US20140087995A1 (published 2014).

The target of one test is T1, rat calcitonin receptor (rat, UniProt P32214 25-516).
T1 construct: whole, on cells; Cell membranes of transiently transfected BHK tk'ts 13 cells (Assay VIII); also called rCTR; rCT
T1 sequence (looked up): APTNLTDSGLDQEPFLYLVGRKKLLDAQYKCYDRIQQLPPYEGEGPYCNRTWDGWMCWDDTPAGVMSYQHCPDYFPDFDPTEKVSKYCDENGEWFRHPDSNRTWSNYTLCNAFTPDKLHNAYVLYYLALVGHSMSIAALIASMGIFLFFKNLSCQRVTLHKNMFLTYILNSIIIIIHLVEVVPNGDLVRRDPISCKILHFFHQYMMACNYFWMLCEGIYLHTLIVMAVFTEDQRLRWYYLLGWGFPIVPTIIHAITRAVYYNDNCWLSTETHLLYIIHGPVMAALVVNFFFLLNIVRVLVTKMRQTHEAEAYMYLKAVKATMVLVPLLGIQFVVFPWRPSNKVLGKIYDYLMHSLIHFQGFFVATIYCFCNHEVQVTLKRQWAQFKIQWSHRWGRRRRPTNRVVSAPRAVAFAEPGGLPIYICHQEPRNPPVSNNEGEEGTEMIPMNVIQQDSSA
Briefly: ratio IC50 rat calcitonin receptor / IC50 rat amylin receptor.
As to B1, the “Ratio rCT/rAmylin binding” value worked out at 65.1.

In the case of B2, the “Ratio rCT/rAmylin binding” value was 32.4.

B3: the “Ratio rCT/rAmylin binding” value was 104.

As to B4, the “Ratio rCT/rAmylin binding” value was found to be 366.

For another test, the target named is T1, rat calcitonin receptor. Briefly: SPA competition vs 125I-calcitonin, membranes with rat CTR (Assay VIII).
The IC50 is the point on the concentration scale where inhibition reaches its midpoint. Regarding B1, the IC50 is 61.7 nM.

Take B2: the IC50 came out at 60.1 nM.

In the case of B3, the IC50 was 135 nM.

With B4, the IC50 is 108 nM.

The next test addresses T2, human calcitonin receptor (human, UniProt P30988 25-474).
T2 construct: whole, on cells; Cell membranes of a stably transfected BHK cell line (Assay VII); also called hCTR; hCT
T2 sequence (looked up): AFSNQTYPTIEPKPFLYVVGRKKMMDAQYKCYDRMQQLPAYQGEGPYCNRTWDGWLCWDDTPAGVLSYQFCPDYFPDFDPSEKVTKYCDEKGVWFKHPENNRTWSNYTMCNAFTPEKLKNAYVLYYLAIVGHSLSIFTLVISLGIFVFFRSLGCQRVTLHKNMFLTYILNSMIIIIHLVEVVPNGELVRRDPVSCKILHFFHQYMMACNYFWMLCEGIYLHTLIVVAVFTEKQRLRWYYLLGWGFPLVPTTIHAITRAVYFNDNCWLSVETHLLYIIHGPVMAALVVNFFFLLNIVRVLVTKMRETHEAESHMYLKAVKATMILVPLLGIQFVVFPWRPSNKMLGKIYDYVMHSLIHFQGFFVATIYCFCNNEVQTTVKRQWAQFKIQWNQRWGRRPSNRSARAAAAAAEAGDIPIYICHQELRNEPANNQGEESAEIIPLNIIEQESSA
Briefly: ratio IC50 human calcitonin receptor / IC50 human amylin receptor. The method, then: The resulting pellet was resuspended, homogenized and centrifuged (20.000 rpm, 15 min) in a buffer containing 20 mM Na-HEPES and 0.1 mM EDTA (pH 7.4, buffer 2). The resulting pellet was resuspended in buffer 2 and protein concentration was measured (BCA protein Assay, Pierce). The homogenate was kept cold during the whole procedure. The membranes were kept at −80° C. until use. The assay was performed in a 384 well Optiplate (PerkinElmer) in a total volume of 40 ul. Membranes were mixed with SPA beads. Final concentration of membranes 35 ng/μL final and SPA beads was 0.05 mg/well. Test-compounds were dissolved in DMSO and further diluted in assay buffer (50 mM Hepes, pH 7.4, 1 mM CaCl2, 5 mM MgCl₂, 0.1% OA and 0.02% Tween20). […] The final mixture was incubated with shaking at 400 rpm for 120 min at 25° C. prior to centrifugation (1500 rpm, 10 min). Samples were analyzed on TopCounter™ (Packard). The IC₅₀ was calculated using (one site binding competition analysis) GraphPad Prism5 as a measure of receptor affinity.
Membranes were prepared in the following way; the cells were rinsed with PBS and incubated with Versene for approximately 5 min before harvesting. The cells were flushed with PBS and the cell-suspension was centrifuged for 5 min at 1000 rpm. Cells were homogenized (Ultrathurrax) in a buffer containing 20 mM Na-HEPES and 10 mM EDTA (pH 7.4) and centrifuged at 20.000 rpm for 15 min. The resulting pellet was resuspended, homogenized and centrifuged (20.000 rpm, 15 min) in a buffer containing 20 mM Na-HEPES and 0.1 mM EDTA (pH 7.4, buffer 2). The resulting pellet was resuspended in buffer 2 and protein concentration was measured (BCA protein Assay, Pierce). The homogenate was kept cold during the whole procedure. The membranes were kept at −80° C. until use. Assay was performed in a 384 well Optiplate (PerkinElmer) in a total volume of 40 ul. Membranes were mixed with SPA beads.
Take B1: the “Ratio hCT/hAmylin binding” value was 50.3.

For B2, the “Ratio hCT/hAmylin binding” value stood at 15.7.

Turning to B3, the “Ratio hCT/hAmylin binding” value is 27.6.

B4: the “Ratio hCT/hAmylin binding” value was 47.5.

The next test has as its target T3, rat amylin receptor (rat calcitonin receptor + rat RAMP 3) (rat, UniProt P32214 25-516; Q9JJ73 23-147).
T3 construct: whole, on cells; Cell membranes of transiently transfected BHK tk'ts 13 cells (Assay VI); also called rAmylin-R; rat amylin 3(a) receptor
T3 sequence (looked up) 1: T1 sequence (looked up)
T3 sequence (looked up) 2: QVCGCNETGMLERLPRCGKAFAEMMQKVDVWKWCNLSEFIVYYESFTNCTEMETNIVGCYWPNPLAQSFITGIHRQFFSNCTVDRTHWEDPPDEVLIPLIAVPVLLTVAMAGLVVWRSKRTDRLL
Briefly: SPA competition vs 125I-rat amylin, membranes with rat CTR + rat RAMP3 (Assay VI).
Take B1: the IC50 was found to be 0.948 nM.

On to B2, for which the IC50 was 1.86 nM.

Regarding B3, the IC50 amounted to 1.3 nM.

In the case of B4, the IC50 was 0.295 nM.
